Data taken from publication PMC10226619, “The SAGA HAT module is tethered by its SWIRM domain and modulates activity of the SAGA DUB module” (Biochimica et biophysica acta. Gene regulatory mechanisms, 2023).

B1: Ada2 ΔSWIRM (Δ residues 349–434, chromosomal deletion) (natural protein, S. cerevisiae, UniProt Q02336 1-434, looked up)
chain: MSNKFHCDVCSADCTNRVRVSCAICPEYDLCVPCFSQGSYTGKHRPYHDYRIIETNSYPILCPDWGADEELQLIKGAQTLGLGNWQDIADHIGSRGKEEVKEHYLKYYLESKYYPIPDITQNIHVPQDEFLEQRRHRIESFRERPLEPPRKPMASVPSCHEVQGFMPGRLEFETEFENEAEGPVKDMVFEPDDQPLDIELKFAILDIYNSRLTTRAEKKRLLFENHLMDYRKLQAIDKKRSKEAKELYNRIKPFARVMTAQDFEEFSKDILEELHCRARIQQLQEWRSNGLTTLEAGLKYERDKQARISSFEKFGASTAASLSEGNSRYRSNSAHRSNAEYSQNYSEN
notes: Ada2, S. cerevisiae, without the SWIRM domain (residues 349–434 substituted with KanMX in the gene); source: S. cerevisiae strain YCW20, SWIRM domain deleted by homologous recombination, in lysate
B2: Gcn5 (endogenous) (enzyme, S. cerevisiae (endogenous in yeast), UniProt Q03330 1-439, looked up)
chain: MVTKHQIEEDHLDGATTDPEVKRVKLENNVEEIQPEQAETNKQEGTDKENKGKFEKETERIGGSEVVTDVEKGIVKFEFDGVEYTFKERPSVVEENEGKIEFRVVNNDNTKENMMVLTGLKNIFQKQLPKMPKEYIARLVYDRSHLSMAVIRKPLTVVGGITYRPFDKREFAEIVFCAISSTEQVRGYGAHLMNHLKDYVRNTSNIKYFLTYADNYAIGYFKKQGFTKEITLDKSIWMGYIKDYEGGTLMQCSMLPRIRYLDAGKILLLQEAALRRKIRTISKSHIVRPGLEQFKDLNNIKPIDPMTIPGLKEAGWTPEMDALAQRPKRGPHDAAIQNILTELQNHAAAWPFLQPVNKEEVPDYYDFIKEPMDLSTMEIKLESNKYQKMEDFIYDARLVFNNCRMYNGENTSYYKYANRLEKFFNNKVKEIPEYSHLID
notes: Gcn5, histone acetyltransferase subunit of the SAGA HAT module, S. cerevisiae; source: endogenous, S. cerevisiae lysate / whole cell extract
B3: Ada3 (endogenous) (natural protein, S. cerevisiae (endogenous in yeast), UniProt P32494 1-702, looked up)
chain: MPRHGRRGKLPKGEKLPKKEGGDNTPSKLLSSMLKTLDLTFERDIGMLNGKSVRSIPNKKTLLELQSQLDSLNEILGTIARGDQETIEALRKIRDSKNEKQANDEKQETSNADGQHESSTATEETNIIDKGVQSPPKPPPSNEISGTIENDVESIKQAADNMAKEEINEDKDLQVHRDQPREKRPFDSETENRATENENTQRPDNKKQKIDVDKMENDPTVKNPKSEFVVSQTLPRAAAALGLFNEEGLESTGEDFLKKKYNVASYPTNDLKDLLPGELPDMDFSHPKPTNQIQFNTFLAFVENFFKDLSDDNLKFLKMKYIIPDSLQFDKTYDPEVNPFIIPKLGPLYTDVWFKDENDKNSAYKKPSPYSNDASTILPKKSANELDDNALESGSISCGPLLSRLLSAVLKDDNDKSELQSSKIIRDGGLPRTGGEDDIQSFRNNNNDTVDMTLSQENGPSVQTPDNDIDEEASFQAKLAENKGSNGGTTSTLPQQIGWITNGINLDYPTFEERLKRELKYVGIYMNLPKDENNPNSDDPDWVTGREDDEISAELRELQGTLKQVTKKNQKRKAQLIPLVERQLAWQEYSSILEDLDKQIDQAYVKRIRVPKKRKKHHTAASNNVNTGTTSQIAQQKAANSSLKSLLDKRQRWINKIGPLFDKPEIMKRIPNESVFKDMDQEEDEDEADVFAQNTNKDVELN
notes: Ada3, SAGA HAT module subunit, S. cerevisiae; source: endogenous, S. cerevisiae lysate / whole cell extract
B4: Sgf29 (endogenous) (natural protein, S. cerevisiae (endogenous in yeast), UniProt P25554 1-259, looked up)
chain: MDGYWDVVVSSLQDIYNANEVIPFDDELQTKKLNFLNMSKDQLQLHLNTFQEHMENVNRVHRILDNVRSNLSLMLNQSREEKSEENTEDAEEGEGTRMALSQGKKAVGKVGRSYWTSEYNPNAPILVGSEVAYKPRRGSADGEWIQCEVLKVVADGTRFEVRDPEPDELGNSGKVYKCNRKELLLIPPGFPTKNYPPGTKVLARYPETTTFYPAIVIGTKRDGTCRLRFDGEEEVDKETEVTRRLVLPSPTALANLARK
notes: Sgf29, SAGA HAT module subunit, S. cerevisiae; source: endogenous, S. cerevisiae lysate / whole cell extract

biological target: T1, Spt7 with a C-terminal TAP tag (S. cerevisiae, UniProt P35177 1-1332); assay: affinity purification with mass spectrometry; SAGA purified by Spt7-TAP from yeast with the Ada2 SWIRM domain deleted (YCW20): IgG Sepharose, TEV cleavage, HiTrap Q; LC-MS/MS, total spectrum counts normalized to Spt7; settings: partners not purified
T1 construct: Spt7, SAGA core subunit, S. cerevisiae; expressed at endogenous level; SAGA was captured on IgG Sepharose by the TAP tag and released from the beads by TEV cleavage of the tag; also called Spt7-TAP; not shown: TAP, C-terminal, kept
T1 sequence (looked up): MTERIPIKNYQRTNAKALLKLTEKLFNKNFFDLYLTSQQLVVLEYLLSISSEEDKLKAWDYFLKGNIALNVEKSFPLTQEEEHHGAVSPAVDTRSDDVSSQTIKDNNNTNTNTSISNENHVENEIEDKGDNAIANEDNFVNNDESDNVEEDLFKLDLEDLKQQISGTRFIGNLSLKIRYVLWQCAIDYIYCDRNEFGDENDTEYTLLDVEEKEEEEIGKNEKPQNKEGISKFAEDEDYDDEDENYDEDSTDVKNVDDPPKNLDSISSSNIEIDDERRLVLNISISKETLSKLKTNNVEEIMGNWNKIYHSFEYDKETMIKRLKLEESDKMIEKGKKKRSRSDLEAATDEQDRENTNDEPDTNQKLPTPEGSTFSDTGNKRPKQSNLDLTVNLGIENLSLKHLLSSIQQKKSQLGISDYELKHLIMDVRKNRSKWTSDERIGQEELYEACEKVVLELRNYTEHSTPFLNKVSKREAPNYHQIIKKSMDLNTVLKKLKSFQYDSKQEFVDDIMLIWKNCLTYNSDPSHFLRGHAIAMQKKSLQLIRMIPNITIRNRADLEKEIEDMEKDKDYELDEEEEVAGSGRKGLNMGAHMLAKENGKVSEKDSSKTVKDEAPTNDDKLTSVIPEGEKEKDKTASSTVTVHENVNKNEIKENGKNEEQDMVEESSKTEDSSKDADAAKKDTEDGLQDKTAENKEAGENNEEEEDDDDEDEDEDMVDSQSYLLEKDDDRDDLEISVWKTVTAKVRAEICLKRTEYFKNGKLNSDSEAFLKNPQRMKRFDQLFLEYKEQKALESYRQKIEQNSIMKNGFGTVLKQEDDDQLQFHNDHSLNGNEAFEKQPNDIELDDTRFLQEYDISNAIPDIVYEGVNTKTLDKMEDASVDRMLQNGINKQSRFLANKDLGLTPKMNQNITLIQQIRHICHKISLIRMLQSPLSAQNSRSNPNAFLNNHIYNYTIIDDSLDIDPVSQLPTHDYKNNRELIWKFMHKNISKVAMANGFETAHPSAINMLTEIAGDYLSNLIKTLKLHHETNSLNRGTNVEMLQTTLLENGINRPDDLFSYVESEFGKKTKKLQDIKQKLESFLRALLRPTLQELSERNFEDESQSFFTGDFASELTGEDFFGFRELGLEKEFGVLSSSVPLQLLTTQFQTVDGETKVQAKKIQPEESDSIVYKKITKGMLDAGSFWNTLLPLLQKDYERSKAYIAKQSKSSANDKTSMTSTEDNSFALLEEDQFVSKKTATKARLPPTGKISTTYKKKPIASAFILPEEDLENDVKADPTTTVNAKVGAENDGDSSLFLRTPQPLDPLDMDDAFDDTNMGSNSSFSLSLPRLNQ

Row | Binder | fold depletion against wild type SAGA
1 | B1 | ~7 fold
2 | B2 | ~7 fold
3 | B3 | ~7 fold
4 | B4 | ~7 fold
